Here are results for 1 substance from paper PMC11522927.

The target in the assay is VirC^4A (HMG synthase VirC, Cys114Ala/Gln334Ala/Arg335Ala/Arg338Ala) (Streptomyces virginiae). As to the kind of experiment: SEC-SAXS. On the technique in general: SEC sorts molecules by how far they enter the pores of the column.

For “VirC^4A (HMG synthase VirC, Cys114Ala/Gln334Ala/Arg335Ala/Arg338Ala) (enzyme)”, the stoichiometry N was determined as 2.

One may read the stoichiometry N as the number of molecules, sites or subunits per partner or assembly.
